Hetero-FRET efficiency data for 1 substance are collected here from article PMC9596428.

The target of experiment [1] is mVenus-tagged CaMKIIα holoenzyme (mVenus-mCaMKIIα), wild type (mouse) (UniProt P11798). The experiment in a line: FRET or BRET; in vitro time-lapse binary-FRET (mVenus lifetime for hetero-FRET to mCherry, anisotropy for homo-FRET); V-CaMKII homogenate (15-20 nM holoenzyme) with 10 µM purified NR2B fragment in 1x kinase buffer, 1 mM DTT, 1 mM CaCl2, 1 mM ATP, 1 mM MgCl2, 5 µM calmodulin; room temperature; followed over 3 h. (In general: In BRET a luciferase serves as donor, and the signal depends on an acceptor being close.)

The target in experiment [2] is mVenus-tagged CaMKIIα K42R mutant holoenzyme (mouse) (UniProt P11798). Described as above.

With “mCherry-tagged NR2B binding fragment (6His-mCherry-Flag-NR2B 1265-1320) (from UniProt Q13224 1265-1320) (domain or fragment)”, the results for the hetero-FRET efficiency in experiment [1] and in experiment [2] were 11.9% and 12.6%, respectively.
